Experimental data taken from patent publication US20180245061A1, “Modified Heterocyclase” (THE UNIVERSITY COURT OF THE UNIVERSITY OF ABERDEEN, priority 2014, published 2018).
Changes are numbered by the printed parent chain. In names and notes the source's numbering stands. Where no end group is shown, it is not given here.

How the values were obtained:
LynD = test: Trans activation of LynD by exogenous leader peptide (turnover of test peptide ITACITFCAYDG); assay type: biochemical, Lyngbya sp.; settings: for acceleration of turnover of the test peptide by LynD: 5.5 μM leader peptide in trans, 5 μM LynD, 100 μM ITACITFCAYDG; for heterocycles observed in test peptide with LynD plus leader in trans: overnight incubation
Experimental: (§1) For all heterocyclization reactions, […] PatE′ (and variants,) was incubated with 2 μM enzyme in 150 mM NaCl, 10 mM HEPES pH 7.4, 1 mM TCEP, 5 mM ATP and 5 mM MgCl2 for 16 h at 37° C. Samples were analyzed by ESI or MALDI MS (LCT, Micromass or 4800 MALDI TOF/TOF Analyzer, ABSciex). For cis trans activation studies, 100 μM ITACITFCAYDG synthetic test peptide (Peptide Protein Research Ltd) was reacted with 5 μM heterocyclase enzyme in the presence and absence of 5.5 μM LAELSEEAL synthetic peptide, or 5.5 μM full-length PatE′4 leader peptide. The reaction was carried out in 150 mM NaCl, 10 mM HEPES pH 7.4, 1 mM TCEP, 5 mM ATP and 5 mM MgCl2 for 16 h at 37° C. and analyzed as above. Synthetic peptides were purchased from Peptide Protein Research Ltd.
To assess the relative rates of heterocyclization under various conditions, heterocyclization reactions were monitored at regular intervals using MALDI TOF MS. In each case, reactions of PatE′ or ITACITFCAYDG synthetic peptide were prepared as described and incubated at 37° C. prior to addition of LynD allowing a 0 time-point to be recorded. Time points for each reaction were recorded as follows: For PatE′ with LynD (standard conditions), PatE′ with LynD in the presence of α-β-methelene ATP, and ITACITFCAYDG with LynD fusion, the reaction was monitored after 1, 5, 10, 15, 20, 30, 45, 60, 90, 120 and 180 minutes; For ITACITFCAYDG with LynD in the absence, and presence of either minimal leader LAELSEEAL peptide, or full length PatE′4 leader peptide, the reaction was monitored after 15, 30, 60, 120, 240 and 1440 minutes. Reactions were set up in triplicate, and each sample was analyzed by MALDI TOF MS in triplicate (9 spectra recorded in total for each reaction at each time point). For each time point, the total ion count for each species (0, 1 and 2 heterocycles) was recorded, averaged and the percentage of each species was calculated. The rate of each reaction relative to the wild-type reaction (PatE′+LynD) was determined. LC-MS of reaction mixtures was performed on a Waters LC-MS system (LCT mass spectrometer and 2795 HPLC) using a Waters MassPrep column (2.1×10 mm). Solvent B was 0.1% formic acid and Solvent A was MeCN containing 0.1% formic acid. Gradient 0-0.5 min 98% B, 0.5-2.5 min linear to 2% B, 2.5-4.5 min 2% B, 4.5-4.6 min linear to 98% B, […] 98% B at 0.05 ml min−1. The following conditions were used on the mass spectrometer: ESI +ve, capillary voltage 3.5 kV, cone voltage 40 V, mass range 500-2500 m/z, RF lens 500. The spectra were combined across the eluted protein peak and the charged ion series processed using Water's MaxEnt algorithm to give protein mass, using peak width at half height on the strongest peak in the ion envelope. […]

PatE′ = test: Heterocyclization reaction with PatE′, MS analysis; assay type: biochemical; settings: PatE′ with 2 μM enzyme, 5 mM ATP, 5 mM MgCl2, 16 h at 37° C.; TABLE 1
Experimental: as §1

[1] = test system: ITACITFCAYDG synthetic test peptide; test: Heterocyclization of leaderless core/test peptide ITACITFCAYDG (LCMS, MALDI TOF MS time course); assay type: biochemical; settings: for heterocycles formed in core peptide ITACITFCAYDG: no leader
Experimental: After 16 h core peptide incubated with either TruD or LynD only 1 heterocycle is formed. In contrast when incubated with LynD fusion, the heterocyclization reaction is nearly complete—the sample containing predominantly 2 heterocycles after just 2 h. PatE′ and LynD reaction after 2 h is shown as a reference.
as §1, with “Synthetic peptides were purchased from Peptide Protein Research Ltd.” left out
To assess the relative rates of heterocyclization under various conditions, heterocyclization reactions were monitored at regular intervals using MALDI TOF MS. In each case, reactions of PatE′ or ITACITFCAYDG synthetic peptide were prepared as described and incubated at 37° C. prior to addition of LynD allowing a 0 time-point to be recorded. Time points for each reaction were recorded as follows: For PatE′ with LynD (standard conditions), PatE′ with LynD in the presence of α-β-methelene ATP, and ITACITFCAYDG with LynD fusion, the reaction was monitored after 1, 5, 10, 15, 20, 30, 45, 60, 90, 120 and 180 minutes; For ITACITFCAYDG with LynD in the absence, and presence of either minimal leader LAELSEEAL peptide, or full length PatE′4 leader peptide, the reaction was monitored after 15, 30, 60, 120, 240 and 1440 minutes. Reactions were set up in triplicate, and each sample was analyzed by MALDI TOF MS in triplicate (9 spectra recorded in total for each reaction at each time point). […] The rate of each reaction relative to the wild-type reaction (PatE′+LynD) was determined. […]

Sequence of PatE′ (as listed by the source): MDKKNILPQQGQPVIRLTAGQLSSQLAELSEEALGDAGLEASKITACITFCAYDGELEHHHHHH

Molecule: full-length PatE leader: full-length leader peptide from trypsin digestion of quadruple mutant PatE′4 (D2Y, K3E, K4E, R16E)
- acceleration of turnover of the test peptide by LynD (LynD): 6.7 fold
- heterocycles observed in test peptide with LynD plus leader in trans (LynD): both heterocycles are observed

Molecule: LAELSEEAL (ends and bridges not checked) [minimal leader, residues 26 to 34 of PatE]
- acceleration of turnover of the test peptide by LynD (LynD): 5.0 fold
- heterocycles observed in test peptide with LynD plus leader in trans (LynD): both heterocycles are observed

B1: LynD K409E: LynD point mutant K409E (protein)
chain: MQSTPLLQIQPHFHVEVIEPKQVYLLGEQANHALTGQLYCQILPLLNGQYTLEQIVEKLDGEVPPEYIDYVLERLAEKGYLTEAAPELSSEVAAFWSELGIAPPVAAEALRQPVTLTPVGNISEVTVAALTTALRDIGISVQTPTEAGSPTALNVVLTDDYLQPELAKINKQALESQQTWLLVKPVGSVLWLGPVFVPGKTGCWDCLAHRLRGNREVEASVLRQKQAQQQRNGQSGSVIGCLPTARATLPSTLQTGLQFAATEIAKWIVKYHVNATAPGTVFFPTLDGKIITLNHSILDLKSHILIKRSQCPTCGDPKILQHRGFEPLKLESRPKQFTSDGGHRGTTPEQTVQKYQHLISPVTGVVTELVRITDPANPLVHTYRAGHSFGSATSLRGLRNTLKHKSSGEGKTDSQSKASGLCEAVERYSGIFQGDEPRKRATLAELGDLAIHPEQCLCFSDGQYANRETLNEQATVAHDWIPQRFDASQAIEWTPVWSLTEQTHKYLPTALCYYHYPLPPEHRFARGDSNGNAAGNTLEEAILQGFMELVERDGVALWWYNRLRRPAVDLGSFNEPYFVQLQQFYRENDRDLWVLDLTADLGIPAFAGVSNRKTGSSERLILGFGAHLDPTIAILRAVTEVNQIGLELDKVPDENLKSDATDWLITEKLADHPYLLPDTTQPLKTAQDYPKRWSDDIYTDVMTCVNIAQQAGLETLVIDQTRPDIGLNVVKVTVPGMRHFWSRFGEGRLYDVPVKLGWLDEPLTEAQMNPTPMPF
- No. of heterocycles (PatE′) (PatE′): 2

B2: LynD E423R: LynD point mutant E423R (protein)
chain: B1 chain with E409K, E423R
- No. of heterocycles (PatE′) (PatE′): 0

B3: LynD K409A: LynD point mutant K409A (protein)
chain: B1 chain with E409A
- No. of heterocycles (PatE′) (PatE′): 1

B4: TruD: cyanobactin heterocyclase from the trunkamide pathway, SEQ ID NO: 3 (protein)
chain: MQPTALQIKPHFHVEIIEPKQVYLLGEQGNHALTGQLYCQILPFLNGEYTREQIVEKLDGQVPEEYIDFVLSRLVEKGYLTEVAPELSLEVAAFWSELGIAPSVVAEGLKQPVTVTTAGKGIREGIVANLAAALEEAGIQVSDPRDPKAPKAGDSTAQLQVVLTDDYLQPELAAINKEALERQQPWLLVKPVGSILWLGPLFVPGETGCWHCLAQRLQGNREVEASVLQQKRALQERNGQNKNGAVSCLPTARATLPSTLQTGLQWAATEIAKWMVKRHLNAIAPGTARFPTLAGKIFTFNQTTLELKAHPLSRRPQCPTCGDRETLQRRGFEPLKLESRPKHFTSDGGHRAMTPEQTVQKYQHLIGPITGVVTELVRISDPANPLVHTYRAGHSFGSATSLRGLRNVLRHKSSGKGKTDSQSRASGLCEAIERYSGIFQGDEPRKRATLAELGDLAIHPEQCLHFSDRQYDNRESSNERATVTHDWIPQRFDASKAHDWTPVWSLTEQTHKYLPTALCYYRYPFPPEHRFCRSDSNGNAAGNTLEEAILQGFMELVERDSVCLWWYNRVSRPAVDLSSFDEPYFLQLQQFYQTQNRDLWVLDLTADLGIPAFVGVSNRKAGSSERIILGFGAHLDPTVAILRALTEVNQIGLELDKVSDESLKNDATDWLVNATLAASPYLVADASQPLKTAKDYPRRWSDDIYTDVMTCVEIAKQAGLETLVLDQTRPDIGLNVVKVIVPGMRFWSRFGSGRLYDVPVKLGWREQPLAEAQMNPTPMPF
modifications: Prochloron sp. 06037A
- heterocycles formed in core peptide ITACITFCAYDG ([1]; after 16 h / overnight, 5 μM enzyme, 100 μM peptide, 37° C.): 1

B5: LynD fusion: residues 21-38 of the PatE leader and an eleven residue long linker added to the N-terminus of LynD (SEQ ID NO: 39) (protein)
chain: MSHHHHHHDYDENLYFQGSQLSSQLAELSEEALGDAGAGAGAGAGAGAMQSTPLLQIQPHFHVEVIEPKQVYLLGEQANHALTGQLYCQILPLLNGQYTLEQIVEKLDGEVPPEYIDYVLERLAEKGYLTEAAPELSSEVAAFWSELGIAPPVAAEALRQPVTLTPVGNISEVTVAALTTALRDIGISVQTPTEAGSPTALNVVLTDDYLQPELAKINKQALESQQTWLLVKPVGSVLWLGPVFVPGKTGCWDCLAHRLRGNREVEASVLRQKQAQQQRNGQSGSVIGCLPTARATLPSTLQTGLQFAATEIAKWIVKYHVNATAPGTVFFPTLDGKIITLNHSILDLKSHILIKRSQCPTCGDPKILQHRGFEPLKLESRPKQFTSDGGHRGTTPEQTVQKYQHLISPVTGVVTELVRITDPANPLVHTYRAGHSFGSATSLRGLRNTLKHKSSGKGKTDSQSKASGLCEAVERYSGIFQGDEPRKRATLAELGDLAIHPEQCLCFSDGQYANRETLNEQATVAHDWIPQRFDASQAIEWTPVWSLTEQTHKYLPTALCYYHYPLPPEHRFARGDSNGNAAGNTLEEAILQGFMELVERDGVALWWYNRLRRPAVDLGSFNEPYFVQLQQFYRENDRDLWVLDLTADLGIPAFAGVSNRKTGSSERLILGFGAHLDPTIAILRAVTEVNQIGLELDKVPDENLKSDATDWLITEKLADHPYLLPDTTQPLKTAQDYPKRWSDDIYTDVMTCVNIAQQAGLETLVIDQTRPDIGLNVVKVTVPGMRHFWSRFGEGRLYDVPVKLGWLDEPLTEAQMNPTPMPF
modifications: Modified heterocyclase
- heterocycles formed in core peptide ITACITFCAYDG ([1]; after 2 h, LCMS): 2
- rate of processing both cysteines in the test peptide ([1]; compared with native LynD on full length PatE′ substrate): comparable to the full length PatE′ substrate
